Assay results published in article doi:10.1101/2021.12.01.470767 (bioRxiv, 2021).

Tests used:
Assay in all cases: flow cytometry on cells
[1] = target: full-length S of endemic HCoV 229E, cell surface-expressed (Human coronavirus 229E, strain not …, UniProt P15423)
[2] = target: full-length SARS-CoV-2 S (WT), cell surface-expressed (SARS-CoV-2, ancestral (Wuhan-Hu-1), UniProt P0DTC2)
[3] = target: full-length S of bat CoV SHC014, cell surface-expressed (Bat SARS-like coronavirus RsSHC014, UniProt U5WLK5)
[4] = target: full-length SARS-CoV S, cell surface-expressed (SARS-CoV, strain , UniProt P59594)
[5] = target: full-length S of endemic HCoV OC43, cell surface-expressed (Human coronavirus OC43, strain not …, UniProt P36334)
[6] = target: full-length S of endemic HCoV NL63, cell surface-expressed (Human coronavirus NL63, strain not …, UniProt Q6Q1S2)
[7] = target: full-length MERS-CoV S, cell surface-expressed (MERS-CoV, strain , UniProt K9N5Q8)

Binder | binding result [1] | binding result [2] | binding result [3] | binding result [4] | binding result [5] | binding result [6] | binding result [7]
COVA1-07 (antibody, V domains shown) VH: QVQLVESGAEVKKPGSSVKVSCKASGGTLSSYAITWVRQAPGQGLEWVGGIIPIFGTANYAQKFQGRVTITADESTSTAYMELSSLRSEDTAVYYCARVGAYDSSGYSNDYWGQGTLVTVSS VL: DIQLTQSPATLSLSPGERATLSCRASQSVSSYLAWYQQKPGQAPRLLIYDASNRATGIPARFSGSGSGTDFTLTISSLEPEDFAVYYCQQRSNWPPRVTFGGGTKVEIK | no binding (tested: 50 μg/mL) | binds | binds | binds | no binding (tested: 50 μg/mL) | no binding (tested: 50 μg/mL) | no binding (tested: 50 μg/mL)
COVA2-14 (antibody, V domains shown) VH: QVQLVQSGAEVKKPGSSVKVSCKASGGTFSSYAIIWVRQAPGQGLEWMGGIIPIFGTANYAQKFQGRVTITTDESTSTAYMELSSLRSEDTAVYYCARVRYYDSSGYYEDYWGQGTLVTVSS VL: EIVLTQSPATLSLSPGERATLSCRASQSVSSYLAWYQQEPGQAPRLLIYDASNRATGIPARFSGSGSGTDFTLTISSLEPEDFAVYYCQQRSNWPPMYTFGQGTKVEIK | no binding (tested: 50 μg/mL) | binds | binds | binds | no binding (tested: 50 μg/mL) | no binding (tested: 50 μg/mL) | no binding (tested: 50 μg/mL)
COVA2-18 (antibody, V domains shown) VH: EVQLVQSGAEVKKPGSSVKVSCKASGGTFSSYAISWVRQAPGQGLEWMGGIIPIFGTTNYAQKFQGRVTITTDESTSTAYMELSSLRSEDTAVYYCARVYSYDSSGYYLEYWGQGTRVTVSS VL: EIVLTQSPATLSLSPGERATLSCRASQSVSSYLAWYQQKPGQAPRLLIYDASNRATGIPARFSGSGSGTDFTLTISSLEPEDFAVYYCQQRSNWPPSITFGQGTRLEIK | no binding (tested: 50 μg/mL) | binds | binds | binds | no binding (tested: 50 μg/mL) | no binding (tested: 50 μg/mL) | no binding (tested: 50 μg/mL)
